Experimental findings from patent US10801046B2, “Methods and materials for biosynthesizing multifunctional, multivariate molecules via carbon chain modification” (INVISTA NORTH AMERICA S.A.R.L., priority 2016, dated 2020) are described below.

Holding throughout (assay type): biochemical
The nature of assay [1]: Aminotransferase activity, reverse direction (7-aminoheptanoate to 7-oxoheptanoate), L-alanine formation by RP-HPLC. To be noted: cell free extract, 10 mM substrate, 25° C., 4 h, against empty vector control, FIG. 48. As for the experimental part: (§1) A sequence encoding an N-terminal His-tag was added to the genes from Chromobacterium violaceum, Pseudomonas syringae, Rhodobacter sphaeroides, and Vibrio Fluvialis encoding the aminotransferases of SEQ ID NOs: 116 (GenBank Accession No. AAQ59697.1), 126 (GenBank Accession No. AAY39893.1), 127 (GenBank Accession No. ABA81135.1), and 128 (GenBank Accession No. AEA39183.1), respectively such that N-terminal HIS tagged aminotransferases could be produced. Each of the resulting modified genes was cloned into a pET21a expression vector under control of the T7 promoter and each expression vector was transformed into a BL21 [DE3] E. coli host. The resulting recombinant E. coli strains were cultivated at 37° C. in a 250 mL shake flask culture containing 50 mL LB media and antibiotic selection pressure, with shaking at 230 rpm. Each culture was induced overnight at 16° C. using 1 mM IPTG.
(§2) The pellet from each induced shake flask culture was harvested via centrifugation. Each pellet was resuspended and lysed via sonication. The cell debris was separated from the supernatant via centrifugation and the cell free extract was used immediately in enzyme activity assays.
Enzyme activity assays in the reverse direction (i.e., 7-aminoheptanoate to 7-oxoheptanoate) were performed in a buffer composed of a final concentration of 50 mM HEPES buffer (pH=7.5), 10 mM 7-aminoheptanoate, 10 mM pyruvate and 100 μM pyridoxyl 5′ phosphate. Each enzyme activity assay reaction was initiated by adding cell free extract of the aminotransferase gene product or the empty vector control to the assay buffer containing the 7-aminoheptanoate and incubated at 25° C. for 4 h, with shaking at 250 rpm. The formation of L-alanine from pyruvate was quantified via RP-HPLC.

The nature of assay [2]: Aminotransferase activity, 7-aminoheptanol to 7-oxoheptanol, L-alanine formation by RP-HPLC. To be noted: cell free extract, 10 mM substrate, 25° C., 4 h, against empty vector control, FIG. 52. As for the experimental part: (§3) A nucleotide sequence encoding an N-terminal His-tag was added to the Chromobacterium violaceum, Pseudomonas syringae and Rhodobacter sphaeroides genes encoding the aminotransferases of SEQ ID NOs: 116 (GenBank Accession No. AAQ59697.1), 126 (GenBank Accession No. AAY39893.1), and 127 (GenBank Accession No. ABA81135.1), respectively such that N-terminal HIS tagged aminotransferases could be produced. The modified genes were cloned into a pET21a expression vector under the T7 promoter. Each expression vector was transformed into a BL21[DE3] E. coli host. Each resulting recombinant E. coli strain were cultivated at 37° C. in a 250 mL shake flask culture containing 50 mL LB media and antibiotic selection pressure, with shaking at 230 rpm. Each culture was induced overnight at 16° C. using 1 mM IPTG.
as §2
Enzyme activity assays in the reverse direction (i.e., 7-aminoheptanol to 7-oxoheptanol) were performed in a buffer composed of a final concentration of 50 mM HEPES buffer (pH=7.5), 10 mM 7-aminoheptanol, 10 mM pyruvate, and 100 μM pyridoxyl 5′ phosphate. […] The formation of L-alanine was quantified via RP-HPLC.

A short description of assay [3]: Aminotransferase activity, heptane-1,7-diamine to 7-aminoheptanal, L-alanine formation by RP-HPLC. To be noted: cell free extract, 10 mM substrate, 25° C., 4 h, against empty vector control, FIG. 50. As for the experimental part:
as §3, with “A” for “A nucleotide”, “aeruginosa, Pseudomonas syringae, Rhodobacter sphaeroides, Escherichia coli,” for “syringae”, “Vibrio fluvialis” for “Rhodobacter sphaeroides”, “AAQ59697.1), 119 (RefSeq Accession No. NP_417544.5), 125 (GenBank Accession No. AAGO8191.1),” for “AAQ59697.1),”, “AAY39893.1),” for “AAY39893.1), and”, “ABA81135.1), and 128 (GenBank Accession No. AEA39183.1),” for “ABA81135.1),”
as §2
Enzyme activity assays in the reverse direction (i.e., heptane-1,7-diamine to 7-aminoheptanal) were performed in a buffer composed of a final concentration of 50 mM HEPES buffer (pH=7.5), 10 mM heptane-1,7-diamine, 10 mM pyruvate, and 100 μM pyridoxyl 5′ phosphate. Each enzyme activity assay reaction was initiated by adding cell free extract of the aminotransferase gene product or the empty vector control to the assay buffer containing the heptane-1,7-diamine and then incubated at 25° C. for 4 h, with shaking at 250 rpm. The formation of L-alanine was quantified via RP-HPLC.

Assay [4] can be described thus: Aminotransferase activity, N7-acetyl-1,7-diaminoheptane to N7-acetyl-7-aminoheptanal, L-alanine formation by RP-HPLC. To be noted: cell free extract, 10 mM substrate, 25° C., 4 h, against empty vector control, FIG. 51. As for the experimental part:
The activity of the N-terminal His-tagged aminotransferases of SEQ ID NOs: 116 (GenBank Accession No. AAQ59697.1), 119 (RefSeq Accession No. NP_417544.5), 125 (GenBank Accession No. AAGO8191.1), 126 (GenBank Accession No. AAY39893.1), 127 (GenBank Accession No. ABA81135.1), and 128 (GenBank Accession No. AEA39183.1) (see Example 6) for converting N7-acetyl-1,7-diaminoheptane to N7-acetyl-7-aminoheptanal was assayed using a buffer composed of a final concentration of 50 mM HEPES buffer (pH=7.5), 10 mM N7-acetyl-1,7-diaminoheptane, 10 mM pyruvate and 100 μM pyridoxyl 5′ phosphate. Each enzyme activity assay reaction was initiated by adding a cell free extract of the aminotransferases or the empty vector control to the assay buffer containing the N7-acetyl-1,7-diaminoheptane then incubated at 25° C. for 4 h, with shaking at 250 rpm. The formation of L-alanine was quantified via RP-HPLC.

Assay [5] is described as follows: Aminotransferase activity, forward direction (7-oxoheptanoate to 7-aminoheptanoate), pyruvate formation by RP-HPLC. To be noted: cell free extract, 10 mM substrate, 10 mM L-alanine, 25° C., 4 h, against empty vector control, FIG. 49. How it is done:
as §1
The pellet from each induced shake flask culture was harvested via centrifugation. Each pellet was resuspended and lysed via sonication. […]
Enzyme activity in the forward direction (i.e., 7-oxoheptanoate to 7-aminoheptanoate) was confirmed for the aminotransferases of SEQ ID NO: 126 (GenBank Accession No. AAY39893.1), SEQ ID NO: 127 (GenBank Accession No. ABA81135.1), and SEQ ID NO: 128 (GenBank Accession No. AEA39183.1). […] The formation of pyruvate was quantified via RP-HPLC.

B1: SEQ ID NO: 116: Chromobacterium violaceum aminotransferase (protein, listed as Chromobacterium violaceum)
chain: MQKQRTTSQWRELDAAHHLHPFTDTASLNQAGARVMTRGEGVYLWDSEGNKIIDGMAGLWCVNVGYGRKDFAEAARRQMEELPFYNTFFKTTHPAVVELSSLLAEVTPAGFDRVFYTNSGSESVDTMIRMVRRYWDVQGKPEKKTLIGRWNGYHGSTIGGASLGGMKYMHEQGDLPIPGMAHIEQPWWYKHGKDMTPDEFGVVAARWLEEKILEIGADKVAAFVGEPIQGAGGVIVPPATYWPEIERICRKYDVLLVADEVICGFGRTGEWFGHQHFGFQPDLFTAAKGLSSGYLPIGAVFVGKRVAEGLIAGGDFNHGFTYSGHPVCAAVAHANVAALRDEGIVQRVKDDIGPYMQKRWRETFSRFEHVDDVRGVGMVQAFTLVKNKAKRELFPDFGEIGTLCRDIFFRNNLIMRACGDHIVSAPPLVMTRAEVDEMLAVAERCLEEFEQTLKARGLA
modifications: Chromobacterium violaceum (strain ATCC 12472 / DSM 30191 / JCM 1249 / NBRC 12614 / NCIMB 9131 / NCTC 9757)
notes: Chromobacterium violaceum aminotransferase
In the case of B1, in assay [1], the “acceptance of 7-aminoheptanoate as substrate” value is reported as “accepted 7-aminoheptanote as substrate”. Also, the “acceptance of 7-aminoheptanol as substrate, forming 7-oxoheptanol” value in assay [2] was “accepted 7-aminoheptanol as a substrate”. For the same molecule, the “acceptance of heptane-1,7-diamine as substrate, forming 7-aminoheptanal” value in assay [3] was “accepted heptane-1,7-diamine as substrate”. The “acceptance of N7-acetyl-1,7-diaminoheptane as substrate, forming N7-acetyl-7-aminoheptanal” value in assay [4] is given as “accepted N7-acetyl-1,7-diaminoheptane as a substrate”.

B2: SEQ ID NO: 126: Pseudomonas syringae aminotransferase (protein)
chain: MSANNPQTLEWQALSSEHHLAPFSDYKQLKEKGPRIITRAEGVYLWDSEGNKILDGMSGLWCVAIGYGREELADAASKQMRELPYYNLFFQTAHPPVLELAKAISDIAPEGMNHVFFTGSGSEGNDTMLRMVRHYWALKGQPNKKTIISRVNGYHGSTVAGASLGGMTYMHEQGDLPIPGVVHIPQPYWFGEGGDMTPDEFGIWAAEQLEKKILELGVENVGAFIAEPIQGAGGVIVPPDSYWPKIKEILSRYDILFAADEVICGFGRTSEWFGSDFYGLRPDMMTIAKGLTSGYVPMGGLIVRDEIVAVLNEGGDFNHGFTYSGHPVAAAVALENIRILREEKIVERVRSETAPYLQKRLRELSDHPLVGEVRGVGLLGAIELVKDKTTRERYTDKGAGMICRTFCFDNGLIMRAVGDTMIIAPPLVISFAQIDELVEKARTCLDLTLAVLQG
modifications: Pseudomonas syringae pv. syringae (strain B728a)
notes: Pseudomonas syringae aminotransferase
For B2, in assay [1], the “acceptance of 7-aminoheptanoate as substrate” value was “accepted 7-aminoheptanote as substrate”. Moreover, the “acceptance of 7-oxoheptanoate as substrate, forming 7-aminoheptanoate” value in assay [5] is listed as “accepted 7-oxoheptanoate as a substrate”. In addition, the “acceptance of 7-aminoheptanol as substrate, forming 7-oxoheptanol” value in assay [2] was “accepted 7-aminoheptanol as a substrate”. For the same molecule, the “acceptance of heptane-1,7-diamine as substrate, forming 7-aminoheptanal” value in assay [3] is given as “accepted heptane-1,7-diamine as substrate”. Moreover, in assay [4], the “acceptance of N7-acetyl-1,7-diaminoheptane as substrate, forming N7-acetyl-7-aminoheptanal” value is recorded as “accepted N7-acetyl-1,7-diaminoheptane as a substrate”.
